Test results published in IntAct's records for PubMed 15546359.

B1: Auxin-responsive protein IAA1 (Arabidopsis thaliana (Mouse-ear cress)), P49677 (parent)
chain: MEVTNGLNLKDTELRLGLPGAQEEQQLELSCVRSNNKRKNNDSTEESAPPPAKTQIVGWPPVRSNRKNNNNKNVSYVKVSMDGAPYLRKIDLKMYKNYPELLKALENMFKFTVGEYSEREGYKGSGFVPTYEDKDGDWMLVGDVPWDMFSSSCQKLRIMKGSEAPTAL
partner: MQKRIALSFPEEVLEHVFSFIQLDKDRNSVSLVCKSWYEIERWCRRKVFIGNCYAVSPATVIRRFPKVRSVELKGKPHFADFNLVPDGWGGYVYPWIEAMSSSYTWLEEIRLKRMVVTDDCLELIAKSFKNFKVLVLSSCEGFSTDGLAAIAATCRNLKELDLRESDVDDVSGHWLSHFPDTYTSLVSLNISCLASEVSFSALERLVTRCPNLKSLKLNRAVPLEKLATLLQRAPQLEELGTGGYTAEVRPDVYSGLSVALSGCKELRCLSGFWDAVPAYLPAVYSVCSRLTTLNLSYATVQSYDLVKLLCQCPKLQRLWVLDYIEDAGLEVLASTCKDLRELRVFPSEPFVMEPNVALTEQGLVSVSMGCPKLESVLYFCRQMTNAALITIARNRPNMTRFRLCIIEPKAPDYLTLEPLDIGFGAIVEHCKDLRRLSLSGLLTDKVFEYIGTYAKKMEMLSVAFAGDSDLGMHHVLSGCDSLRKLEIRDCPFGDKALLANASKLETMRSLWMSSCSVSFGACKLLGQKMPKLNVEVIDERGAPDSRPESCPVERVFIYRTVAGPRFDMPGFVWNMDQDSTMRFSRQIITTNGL

Variants of: B1
Conditions: with tir1_arath TIR1, Q570C0

Row | Variant | effect of a mutation on the interaction
1 | P61S | decreasing interaction
